± gives the uncertainty stated by the source.
B1: KAT8 regulatory NSL complex subunit 2, residues 28 to 91; numbered along this chain, Q9H9L4 (parent)
chain: CAFTHRPCSHPRLEGQEFCIKHILEDKNAPFKQCSYISTKNGKRCPNAAPKPEKKDGVSFCAEH

Variants of: B1
Assay: abundance fitness (aPCA) (normalised: wild type 0, dead -1); higher = more abundant; growth selection in yeast, the domain comes from the species named
Conditions: Homo sapiens

**Q.** Which abundance fitness does the source give for Y36R here?
**A.** -0.055 ± 0.058

**Q.** With Y36V as the variant, how does the abundance fitness read?
**A.** -0.129 ± 0.045

**Q.** Which abundance fitness does the source give for Y36W here?
**A.** -0.122 ± 0.069

**Q.** With Y36N as the variant, how does the abundance fitness read?
**A.** -0.157 ± 0.13

**Q.** With Y36H as the variant, how does the abundance fitness read?
**A.** -0.016 ± 0.089

**Q.** With Y36S as the variant, how does the abundance fitness read?
**A.** -0.06 ± 0.056

**Q.** Which abundance fitness does the source give for Y36C here?
**A.** -0.173 ± 0.093

**Q.** Which abundance fitness does the source give for Y36E here?
**A.** -0.183 ± 0.093

**Q.** For Y36G, which abundance fitness is on record?
**A.** -0.085 ± 0.049

**Q.** Which abundance fitness does the source give for Y36P here?
**A.** -0.298 ± 0.087

**Q.** With Y36D as the variant, how does the abundance fitness read?
**A.** -0.162 ± 0.084

**Q.** For Y36A, which abundance fitness is on record?
**A.** -0.096 ± 0.056

**Q.** For Y36M, which abundance fitness is on record?
**A.** -0.216 ± 0.069

**Q.** For Y36T, which abundance fitness is on record?
**A.** -0.054 ± 0.066

**Q.** For Y36F, which abundance fitness is on record?
**A.** -0.015 ± 0.08

**Q.** With Y36L as the variant, how does the abundance fitness read?
**A.** -0.156 ± 0.05

**Q.** Which abundance fitness does the source give for Y36I here?
**A.** -0.131 ± 0.092

**Q.** With Y36Q as the variant, how does the abundance fitness read?
**A.** -0.078 ± 0.11

**Q.** For Y36K, which abundance fitness is on record?
**A.** -0.015 ± 0.069

**Q.** With T39E as the variant, how does the abundance fitness read?
**A.** 0.003 ± 0.33

**Q.** For T39H, which abundance fitness is on record?
**A.** -0.091 ± 0.067

**Q.** For T39R, which abundance fitness is on record?
**A.** -0.105 ± 0.14

**Q.** With T39P as the variant, how does the abundance fitness read?
**A.** -0.207 ± 0.083

**Q.** With T39C as the variant, how does the abundance fitness read?
**A.** -0.205 ± 0.073

**Q.** Which abundance fitness does the source give for T39N here?
**A.** -0.049 ± 0.061

**Q.** For T39A, which abundance fitness is on record?
**A.** -0.13 ± 0.07

**Q.** With T39W as the variant, how does the abundance fitness read?
**A.** -0.57 ± 0.15

**Q.** With T39M as the variant, how does the abundance fitness read?
**A.** -0.165 ± 0.083

**Q.** With T39L as the variant, how does the abundance fitness read?
**A.** -0.209 ± 0.072

**Q.** For T39V, which abundance fitness is on record?
**A.** -0.097 ± 0.082

**Q.** For T39K, which abundance fitness is on record?
**A.** -0.087 ± 0.13

**Q.** Which abundance fitness does the source give for T39I here?
**A.** -0.123 ± 0.066

**Q.** For T39F, which abundance fitness is on record?
**A.** -0.105 ± 0.075

**Q.** Which abundance fitness does the source give for T39S here?
**A.** -0.112 ± 0.052

**Q.** Which abundance fitness does the source give for T39D here?
**A.** -0.101 ± 0.075

**Q.** For T39Y, which abundance fitness is on record?
**A.** -0.237 ± 0.16

**Q.** For N41E, which abundance fitness is on record?
**A.** -0.005 ± 0.07

**Q.** For N41K, which abundance fitness is on record?
**A.** 0.019 ± 0.11

**Q.** With N41C as the variant, how does the abundance fitness read?
**A.** -0.161 ± 0.09

**Q.** For N41V, which abundance fitness is on record?
**A.** -0.031 ± 0.05

**Q.** For N41H, which abundance fitness is on record?
**A.** -0.115 ± 0.097

**Q.** For N41S, which abundance fitness is on record?
**A.** -0.052 ± 0.054

**Q.** Which abundance fitness does the source give for N41Y here?
**A.** -0.365 ± 0.13

**Q.** Which abundance fitness does the source give for N41A here?
**A.** -0.058 ± 0.053

**Q.** Which abundance fitness does the source give for N41F here?
**A.** -0.086 ± 0.099

**Q.** For N41G, which abundance fitness is on record?
**A.** -0.03 ± 0.053

**Q.** With N41L as the variant, how does the abundance fitness read?
**A.** -0.09 ± 0.06

**Q.** Which abundance fitness does the source give for N41W here?
**A.** -0.171 ± 0.07

**Q.** Which abundance fitness does the source give for N41M here?
**A.** -0.079 ± 0.1

**Q.** Which abundance fitness does the source give for N41R here?
**A.** -0.06 ± 0.048

**Q.** For N41P, which abundance fitness is on record?
**A.** -0.13 ± 0.073

**Q.** With N41T as the variant, how does the abundance fitness read?
**A.** -0.195 ± 0.075

**Q.** With N41Q as the variant, how does the abundance fitness read?
**A.** -0.098 ± 0.071

**Q.** Which abundance fitness does the source give for S38F here?
**A.** -0.038 ± 0.075

**Q.** With S38K as the variant, how does the abundance fitness read?
**A.** -0.084 ± 0.11

**Q.** With S38G as the variant, how does the abundance fitness read?
**A.** -0.048 ± 0.058

**Q.** For S38R, which abundance fitness is on record?
**A.** -0.06 ± 0.049

**Q.** Which abundance fitness does the source give for S38C here?
**A.** -0.026 ± 0.076

**Q.** Which abundance fitness does the source give for S38V here?
**A.** -0.024 ± 0.051

**Q.** Which abundance fitness does the source give for S38M here?
**A.** -0.159 ± 0.1

**Q.** For S38E, which abundance fitness is on record?
**A.** -0.059 ± 0.081

**Q.** For S38A, which abundance fitness is on record?
**A.** -0.002 ± 0.058

**Q.** For S38Y, which abundance fitness is on record?
**A.** -0.065 ± 0.1

**Q.** Which abundance fitness does the source give for S38P here?
**A.** -0.028 ± 0.067

**Q.** With S38I as the variant, how does the abundance fitness read?
**A.** -0.348 ± 0.15

**Q.** With S38W as the variant, how does the abundance fitness read?
**A.** -0.076 ± 0.05

**Q.** Which abundance fitness does the source give for S38H here?
**A.** -0.111 ± 0.085

**Q.** For S38L, which abundance fitness is on record?
**A.** -0.076 ± 0.05

**Q.** Which abundance fitness does the source give for S38N here?
**A.** -0.122 ± 0.062

**Q.** For S38Q, which abundance fitness is on record?
**A.** -0.08 ± 0.08

**Q.** Which abundance fitness does the source give for S38T here?
**A.** -0.104 ± 0.064

**Q.** For F31W, which abundance fitness is on record?
**A.** -0.116 ± 0.088

**Q.** Which abundance fitness does the source give for F31Y here?
**A.** -0.195 ± 0.15

**Q.** Which abundance fitness does the source give for K32P here?
**A.** -0.211 ± 0.073

**Q.** With K32N as the variant, how does the abundance fitness read?
**A.** -0.073 ± 0.091

**Q.** With K32E as the variant, how does the abundance fitness read?
**A.** -0.026 ± 0.083

**Q.** Which abundance fitness does the source give for K32Y here?
**A.** -0.194 ± 0.083

**Q.** For K32R, which abundance fitness is on record?
**A.** -0.041 ± 0.063

**Q.** Which abundance fitness does the source give for K32T here?
**A.** -0.177 ± 0.069

**Q.** With K32S as the variant, how does the abundance fitness read?
**A.** -0.093 ± 0.054

**Q.** For K32C, which abundance fitness is on record?
**A.** -0.146 ± 0.098

**Q.** With K32A as the variant, how does the abundance fitness read?
**A.** -0.075 ± 0.061

**Q.** For K32F, which abundance fitness is on record?
**A.** -0.305 ± 0.11

Reference: the Human Domainome abundance scans (Beltran et al. 2025)
